# Legend:
# EPHB2 = EPHB2 (UniProt P29323); assay: phosphorylation enrichment, bacterial display (enrichment ratio); higher = better substrate or ligand; peptides without Tyr show the background
# Fer (mouse) = assay: as above
# EPHB1 = EPHB1 (UniProt P54762); assay: as above
# Fes = Fes (UniProt P07332); assay: as above
# Fyn = Fyn (UniProt P06241); assay: as above
# Jak2 = Jak2 (UniProt O60674); assay: as above
# AncSZ = assay: as above
# MERTK = MERTK (UniProt Q12866); assay: as above
# FGFR3 = FGFR3 (UniProt P22607); assay: as above
# Chain of FGFR3 (P22607 whole entry, looked up): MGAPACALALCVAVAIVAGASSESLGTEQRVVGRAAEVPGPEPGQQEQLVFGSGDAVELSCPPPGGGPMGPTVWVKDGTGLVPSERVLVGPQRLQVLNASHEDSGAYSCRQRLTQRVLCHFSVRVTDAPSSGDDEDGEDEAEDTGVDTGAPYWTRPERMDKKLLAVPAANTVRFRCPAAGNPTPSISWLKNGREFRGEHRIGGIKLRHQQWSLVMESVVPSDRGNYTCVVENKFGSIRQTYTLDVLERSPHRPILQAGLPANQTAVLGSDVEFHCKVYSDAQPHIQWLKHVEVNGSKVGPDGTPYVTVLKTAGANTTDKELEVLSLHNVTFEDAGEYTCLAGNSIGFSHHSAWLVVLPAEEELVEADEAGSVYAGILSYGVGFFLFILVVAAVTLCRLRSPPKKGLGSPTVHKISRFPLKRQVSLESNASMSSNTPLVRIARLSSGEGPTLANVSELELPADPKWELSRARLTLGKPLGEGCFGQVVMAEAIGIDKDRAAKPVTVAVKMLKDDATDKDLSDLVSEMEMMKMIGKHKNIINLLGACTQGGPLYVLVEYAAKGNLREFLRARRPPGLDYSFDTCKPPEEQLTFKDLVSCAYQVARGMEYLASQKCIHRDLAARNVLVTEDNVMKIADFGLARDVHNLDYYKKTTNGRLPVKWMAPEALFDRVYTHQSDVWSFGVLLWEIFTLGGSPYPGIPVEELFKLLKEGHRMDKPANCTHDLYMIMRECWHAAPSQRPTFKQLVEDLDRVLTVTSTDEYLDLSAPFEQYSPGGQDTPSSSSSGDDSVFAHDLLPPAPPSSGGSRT
# c-Abl (mouse) = assay: as above
# FGFR1 = FGFR1 (UniProt P11362); assay: as above
# Chain of FGFR1 (P11362 whole entry, looked up): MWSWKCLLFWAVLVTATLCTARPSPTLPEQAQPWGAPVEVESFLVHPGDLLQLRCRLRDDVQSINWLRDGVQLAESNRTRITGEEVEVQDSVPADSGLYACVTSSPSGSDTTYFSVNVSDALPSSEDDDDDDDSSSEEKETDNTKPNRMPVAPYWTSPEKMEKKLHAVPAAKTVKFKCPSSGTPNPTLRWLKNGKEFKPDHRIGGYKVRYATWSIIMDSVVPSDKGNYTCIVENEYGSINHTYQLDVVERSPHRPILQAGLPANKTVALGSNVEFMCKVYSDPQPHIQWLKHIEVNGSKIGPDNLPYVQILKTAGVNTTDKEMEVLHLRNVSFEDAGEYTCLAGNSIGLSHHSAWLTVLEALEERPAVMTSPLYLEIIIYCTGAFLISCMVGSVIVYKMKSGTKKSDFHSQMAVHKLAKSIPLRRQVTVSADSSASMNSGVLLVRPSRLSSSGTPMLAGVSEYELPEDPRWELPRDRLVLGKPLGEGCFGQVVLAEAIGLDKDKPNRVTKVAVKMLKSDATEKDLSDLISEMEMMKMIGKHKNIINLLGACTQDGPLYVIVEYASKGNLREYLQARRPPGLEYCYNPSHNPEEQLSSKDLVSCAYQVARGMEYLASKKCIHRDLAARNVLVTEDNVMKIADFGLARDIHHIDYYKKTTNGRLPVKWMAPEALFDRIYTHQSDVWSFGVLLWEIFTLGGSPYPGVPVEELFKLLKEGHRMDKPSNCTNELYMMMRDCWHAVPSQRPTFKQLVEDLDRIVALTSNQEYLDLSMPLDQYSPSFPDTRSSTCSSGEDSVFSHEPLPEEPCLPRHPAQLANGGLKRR
# Hck = Hck (UniProt P08631); assay: as above
# Chain of Hck (P08631 whole entry, looked up): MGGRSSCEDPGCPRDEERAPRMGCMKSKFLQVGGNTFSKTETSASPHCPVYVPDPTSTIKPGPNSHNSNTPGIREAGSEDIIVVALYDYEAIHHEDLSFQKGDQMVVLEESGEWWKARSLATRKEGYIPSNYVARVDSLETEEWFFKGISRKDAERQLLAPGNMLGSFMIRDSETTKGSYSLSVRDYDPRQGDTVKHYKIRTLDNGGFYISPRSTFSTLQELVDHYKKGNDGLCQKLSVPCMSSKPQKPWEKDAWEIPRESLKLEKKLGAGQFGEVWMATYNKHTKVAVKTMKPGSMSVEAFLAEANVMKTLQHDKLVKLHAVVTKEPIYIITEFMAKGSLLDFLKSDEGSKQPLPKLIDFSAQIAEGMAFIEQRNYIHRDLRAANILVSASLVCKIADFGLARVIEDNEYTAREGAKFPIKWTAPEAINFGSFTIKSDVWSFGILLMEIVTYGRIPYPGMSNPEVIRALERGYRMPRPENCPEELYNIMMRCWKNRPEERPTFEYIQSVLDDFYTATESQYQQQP
# c-Src = assay: as above
# SHP2-C SH2 = assay: SH2 binding enrichment of the phosphorylated peptide, bacterial display (enrichment ratio); higher = better substrate or ligand; peptides without Tyr show the background
# c-Src SH2 = assay: as above
# Grb2 SH2 = Grb2 SH2 (UniProt P62993); assay: as above
# 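Throughout, for SH2 binding enrichment of the phosphorylated peptide, bacterial display: peptide library displayed on the E. coli surface as eCPX fusions, selected cells deep-sequenced, score is each peptide's frequency after selection divided by its frequency in the input.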
# 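Throughout, for phosphorylation enrichment, bacterial display: 11-residue human phosphosite peptides and single-mutation variants displayed on the E. coli surface, counted by deep sequencing, each peptide's frequency after selection divided by its frequency in the unselected input library; frequency after pTyr selection over input frequency; kinase dosed for 20-30% of maximal phosphorylation in three min.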
# Chain of Fes (P07332 whole entry, looked up): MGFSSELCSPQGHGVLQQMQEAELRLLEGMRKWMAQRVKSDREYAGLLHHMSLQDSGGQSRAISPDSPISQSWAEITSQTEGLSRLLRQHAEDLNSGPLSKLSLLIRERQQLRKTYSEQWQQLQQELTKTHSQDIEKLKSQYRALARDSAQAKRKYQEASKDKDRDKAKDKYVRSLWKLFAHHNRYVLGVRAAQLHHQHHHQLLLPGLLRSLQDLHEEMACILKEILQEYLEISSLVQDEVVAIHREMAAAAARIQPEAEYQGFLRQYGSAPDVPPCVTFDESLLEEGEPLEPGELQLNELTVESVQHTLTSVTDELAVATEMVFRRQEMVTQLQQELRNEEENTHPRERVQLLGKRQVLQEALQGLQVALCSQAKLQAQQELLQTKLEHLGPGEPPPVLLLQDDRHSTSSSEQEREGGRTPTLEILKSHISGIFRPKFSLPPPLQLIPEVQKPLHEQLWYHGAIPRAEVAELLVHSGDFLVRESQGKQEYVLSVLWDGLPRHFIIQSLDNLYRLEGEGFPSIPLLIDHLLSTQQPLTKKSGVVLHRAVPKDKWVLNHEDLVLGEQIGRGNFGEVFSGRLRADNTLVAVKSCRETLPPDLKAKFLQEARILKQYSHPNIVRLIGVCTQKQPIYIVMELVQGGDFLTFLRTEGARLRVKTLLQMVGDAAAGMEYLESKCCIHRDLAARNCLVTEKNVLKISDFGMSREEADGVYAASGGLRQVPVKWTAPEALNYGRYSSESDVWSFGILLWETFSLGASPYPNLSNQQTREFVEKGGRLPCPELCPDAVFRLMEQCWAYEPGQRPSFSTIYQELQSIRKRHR
# Chain of EPHB1 (P54762 whole entry, looked up): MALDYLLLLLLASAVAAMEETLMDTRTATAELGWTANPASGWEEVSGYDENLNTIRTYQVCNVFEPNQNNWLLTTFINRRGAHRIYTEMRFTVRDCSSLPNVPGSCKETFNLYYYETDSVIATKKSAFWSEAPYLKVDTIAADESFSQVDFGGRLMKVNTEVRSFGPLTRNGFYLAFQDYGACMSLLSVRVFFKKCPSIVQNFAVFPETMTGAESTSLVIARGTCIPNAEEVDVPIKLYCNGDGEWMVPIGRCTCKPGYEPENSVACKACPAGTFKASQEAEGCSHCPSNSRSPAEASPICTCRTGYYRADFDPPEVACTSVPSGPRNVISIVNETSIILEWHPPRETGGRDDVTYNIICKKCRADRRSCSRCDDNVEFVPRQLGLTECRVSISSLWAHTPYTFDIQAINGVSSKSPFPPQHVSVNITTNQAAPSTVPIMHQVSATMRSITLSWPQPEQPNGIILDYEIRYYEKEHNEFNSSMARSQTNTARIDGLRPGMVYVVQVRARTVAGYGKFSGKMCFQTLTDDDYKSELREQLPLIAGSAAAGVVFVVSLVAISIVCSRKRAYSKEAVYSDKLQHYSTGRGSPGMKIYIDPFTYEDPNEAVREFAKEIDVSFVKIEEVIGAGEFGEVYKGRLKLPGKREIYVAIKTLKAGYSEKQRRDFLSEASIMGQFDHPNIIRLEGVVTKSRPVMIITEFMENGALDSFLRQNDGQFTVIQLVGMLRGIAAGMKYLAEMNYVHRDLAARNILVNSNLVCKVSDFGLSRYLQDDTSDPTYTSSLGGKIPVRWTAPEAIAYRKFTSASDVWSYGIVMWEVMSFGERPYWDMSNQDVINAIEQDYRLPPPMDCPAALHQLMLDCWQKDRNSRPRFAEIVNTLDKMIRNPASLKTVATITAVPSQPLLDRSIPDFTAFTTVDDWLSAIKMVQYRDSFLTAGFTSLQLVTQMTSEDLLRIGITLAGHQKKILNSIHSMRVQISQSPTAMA
# Chain of Fyn (P06241 whole entry, looked up): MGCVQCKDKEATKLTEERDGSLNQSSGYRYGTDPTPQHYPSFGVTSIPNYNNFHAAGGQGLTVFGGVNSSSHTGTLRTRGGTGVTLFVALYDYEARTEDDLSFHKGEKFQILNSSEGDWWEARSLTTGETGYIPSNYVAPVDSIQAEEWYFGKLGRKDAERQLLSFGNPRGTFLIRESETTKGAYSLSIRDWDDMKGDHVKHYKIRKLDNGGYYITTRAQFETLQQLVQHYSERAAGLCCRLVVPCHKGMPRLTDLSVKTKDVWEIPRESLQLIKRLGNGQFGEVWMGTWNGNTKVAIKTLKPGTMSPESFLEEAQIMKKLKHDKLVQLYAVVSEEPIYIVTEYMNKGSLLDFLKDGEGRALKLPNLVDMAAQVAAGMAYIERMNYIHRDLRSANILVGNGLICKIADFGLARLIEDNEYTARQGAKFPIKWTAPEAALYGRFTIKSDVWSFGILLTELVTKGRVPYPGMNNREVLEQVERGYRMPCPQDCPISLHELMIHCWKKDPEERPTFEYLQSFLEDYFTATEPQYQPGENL
Sequence,SH2 binding enrichment (SHP2-C SH2),SH2 binding enrichment (c-Src SH2),SH2 binding enrichment (Grb2 SH2),phosphorylation enrichment (EPHB2),phosphorylation enrichment (Fer (mouse)),phosphorylation enrichment (EPHB1),phosphorylation enrichment (Fes),phosphorylation enrichment (Fyn),phosphorylation enrichment (Jak2),phosphorylation enrichment (AncSZ),phosphorylation enrichment (MERTK),phosphorylation enrichment (FGFR3),phosphorylation enrichment (c-Abl (mouse)),phosphorylation enrichment (FGFR1),phosphorylation enrichment (Hck),phosphorylation enrichment (c-Src)
AFQGKYTPSGQ [ALDOA_Y343_C339Y_YF],0.803,0.592,0.759,0.276,0.253,0.376,0.446,0.273,0.547,0.388,0.346,0.328,0.432,0.309,0.266,0.298
AFSTVYKGLWI [EGFR_Y727_G724S],1.5,0.653,0.949,0.498,0.677,0.578,1.1,0.433,1.1,1.01,0.395,0.67,0.814,0.504,0.445,0.455
AGADGYGYLAP [FOXL2_Y186],0.339,1.09,0.759,0.464,0.26,0.387,0.622,0.361,0.538,0.576,0.364,0.457,0.443,0.37,0.468,0.372
AIIGIYILRDD [CDH23_Y2949],1.11,1.04,1.47,0.788,0.676,0.831,1.5,1.18,1.35,1.24,0.546,0.753,0.965,0.484,0.951,2.76
AKNKDYMSFIR [GNE_Y197_I200F],1.23,0.754,1.09,0.648,0.34,0.812,0.646,0.61,0.647,0.606,0.465,0.478,0.661,0.478,0.946,0.972
ALAAPYVLFPS [CEFIP_Y1332_G1337S_YF],0.816,4.34,0.968,0.502,0.504,0.76,0.822,0.578,1.63,0.675,2.01,1.83,0.682,2.56,0.647,5
ALAAPYVLYPG [CEFIP_Y1332],0.602,0.7,0.747,0.488,0.54,0.565,0.799,0.694,0.845,0.769,0.597,2.55,0.569,3.98,0.794,4.26
ALWFIYSHTRS [ENG_Y614_YF],0.81,0.552,1.13,0.445,0.45,0.597,1.5,0.423,0.956,1.01,0.34,0.676,0.697,0.44,0.448,0.379

# Second part, led by results:
SH2 binding enrichment (SHP2-C SH2),SH2 binding enrichment (c-Src SH2),SH2 binding enrichment (Grb2 SH2),Sequence,phosphorylation enrichment (EPHB2),phosphorylation enrichment (Fer (mouse)),phosphorylation enrichment (EPHB1),phosphorylation enrichment (Fes),phosphorylation enrichment (Fyn),phosphorylation enrichment (Jak2),phosphorylation enrichment (AncSZ),phosphorylation enrichment (MERTK),phosphorylation enrichment (FGFR3),phosphorylation enrichment (c-Abl (mouse)),phosphorylation enrichment (FGFR1),phosphorylation enrichment (Hck),phosphorylation enrichment (c-Src)
0.589,0.566,0.562,AGIVDYNIIGW [MYH7_Y588],0.431,0.439,0.636,1.18,0.497,0.877,1.07,0.349,0.909,0.619,0.873,0.497,0.454
0.559,0.761,0.867,AGKEEYSAMRD [HRAS_Y64_Q61K],0.505,0.481,0.467,0.871,0.432,0.644,0.799,0.44,0.582,0.629,0.529,0.49,0.436
0.809,0.412,0.811,AHLTEYLSTHF [UQCRC1_Y219_D215H_YF],0.499,0.44,0.471,0.915,0.471,0.837,0.902,0.408,0.577,0.676,0.529,0.526,0.525
0.673,0.541,0.869,AIMSFYATLID [RYR1_Y2426_A2428T],0.836,0.791,1.05,1.51,0.508,1.83,1.31,0.59,1.09,1.07,0.601,0.585,0.486
0.495,0.511,0.674,AIYRRYSKFFD [SH3PXD2B_Y45],0.568,0.383,0.603,1.03,0.485,0.83,0.989,0.596,0.555,0.783,0.509,0.594,0.636
0.814,0.743,4.17,AKKVFYVNETR [SHH_Y253_I255N],0.448,0.338,0.594,0.737,0.307,0.526,0.576,0.363,0.494,0.459,0.42,0.338,0.319
0.581,0.384,0.516,ALAHKYPGGGG [HBB_Y146_H147P],0.84,0.432,0.894,0.632,0.559,0.262,0.214,0.334,0.662,0.436,0.853,0.273,0.281
0.529,0.6,0.866,ALERPYTSKHS [NANS_Y71],0.459,0.353,0.372,0.535,0.406,0.564,0.531,0.442,0.398,0.615,0.381,0.463,0.461
1.65,1.58,1.6,ALKKPYSVLFK [RPF2_Y59_G60S_YF],0.43,0.502,0.411,0.968,0.419,0.729,0.815,0.448,0.617,0.581,0.556,0.435,0.526

# — the supplement of paper PMC10065799, “High-throughput profiling of sequence recognition by tyrosine kinases and SH2 domains using bacterial peptide display” (eLife, 2023)
